These results are taken from patent publication US9957297B2, “Template-fixed peptidomimetics as inhibitors of FPR1” (POLYPHOR AG, priority 2011, dated 2018).

Bridges are numbered along the chain shown (N, C = ends). [ ]: non-standard residue; d: D form. Dab = NCC[C@H](N)C(=O)O

The target of the test is T1, Formyl-Peptide Receptor 1 (UniProt P21462 1-350, limits assumed).
T1 sequence (looked up): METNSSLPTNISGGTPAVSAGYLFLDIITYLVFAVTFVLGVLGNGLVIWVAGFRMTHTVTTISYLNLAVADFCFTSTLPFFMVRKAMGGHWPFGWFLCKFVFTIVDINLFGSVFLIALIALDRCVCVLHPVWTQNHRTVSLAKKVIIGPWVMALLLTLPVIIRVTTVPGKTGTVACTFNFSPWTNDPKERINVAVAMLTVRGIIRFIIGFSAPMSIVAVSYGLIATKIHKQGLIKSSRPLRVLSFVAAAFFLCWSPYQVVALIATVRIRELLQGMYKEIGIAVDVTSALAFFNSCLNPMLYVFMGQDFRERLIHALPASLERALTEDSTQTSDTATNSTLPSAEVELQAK
The experiment in a line: cell-based or functional assay.

B1: cyclo(-Glu-His-Lys-Cys-His-Gly-^DPro-Trp-Thr-Ile-Cys-Tyr-Glu-Lys-^DPro-Pro-) (peptide)
peptide: cyclo(EHKCHG[dP]WTICYEK[dP]P)
modifications: disulfide 4-11
SMILES: CC[C@H](C)[C@@H]1NC(=O)[C@H]([C@@H](C)O)NC(=O)[C@H](Cc2c[nH]c3ccccc23)NC(=O)[C@H]2CCCN2C(=O)CNC(=O)[C@H](Cc2c[nH]cn2)NC(=O)[C@@H]2CSSC[C@H](NC1=O)C(=O)N[C@@H](Cc1ccc(O)cc1)C(=O)N[C@@H](CCC(=O)O)C(=O)N[C@@H](CCCCN)C(=O)N1CCC[C@@H]1C(=O)N1CCC[C@H]1C(=O)N[C@@H](CCC(=O)O)C(=O)N[C@@H](Cc1c[nH]cn1)C(=O)N[C@@H](CCCCN)C(=O)N2
For the molecule B1, the “β-Arrestin IC50” value was 165 nM.

B2: cyclo(-Tyr-His-Ala-Cys-Trp-Gly-^DPro-Trp-Thr-Ile-Cys-Tyr-Trp-Lys-^DPro-Pro-) (peptide)
peptide: cyclo(YHACWG[dP]WTICYWK[dP]P)
modifications: disulfide 4-11
SMILES: CC[C@H](C)[C@@H]1NC(=O)[C@H]([C@@H](C)O)NC(=O)[C@H](Cc2c[nH]c3ccccc23)NC(=O)[C@H]2CCCN2C(=O)CNC(=O)[C@H](Cc2c[nH]c3ccccc23)NC(=O)[C@@H]2CSSC[C@H](NC1=O)C(=O)N[C@@H](Cc1ccc(O)cc1)C(=O)N[C@@H](Cc1c[nH]c3ccccc13)C(=O)N[C@@H](CCCCN)C(=O)N1CCC[C@@H]1C(=O)N1CCC[C@H]1C(=O)N[C@@H](Cc1ccc(O)cc1)C(=O)N[C@@H](Cc1c[nH]cn1)C(=O)N[C@@H](C)C(=O)N2
Turning to B2, the “β-Arrestin IC50” value came out at 62 nM.

B3: cyclo(-Tyr-His-Glu-Cys-His-Gly-^DPro-Trp-Thr-Ile-Cys-Tyr-Gln-Lys-^DPro-Pro-) (peptide)
peptide: cyclo(YHECHG[dP]WTICYQK[dP]P)
modifications: disulfide 4-11
SMILES: CC[C@H](C)[C@@H]1NC(=O)[C@H]([C@@H](C)O)NC(=O)[C@H](Cc2c[nH]c3ccccc23)NC(=O)[C@H]2CCCN2C(=O)CNC(=O)[C@H](Cc2c[nH]cn2)NC(=O)[C@@H]2CSSC[C@H](NC1=O)C(=O)N[C@@H](Cc1ccc(O)cc1)C(=O)N[C@@H](CCC(N)=O)C(=O)N[C@@H](CCCCN)C(=O)N1CCC[C@@H]1C(=O)N1CCC[C@H]1C(=O)N[C@@H](Cc1ccc(O)cc1)C(=O)N[C@@H](Cc1c[nH]cn1)C(=O)N[C@@H](CCC(=O)O)C(=O)N2
In the case of B3, the “β-Arrestin IC50” value is 321 nM.

B4: cyclo(-Tyr-His-Ile-Cys-His-Gly-^DPro-Trp-Thr-Ile-Cys-Tyr-Gln-Lys-^DPro-Pro-) (peptide)
peptide: cyclo(YHICHG[dP]WTICYQK[dP]P)
modifications: disulfide 4-11
SMILES: CC[C@H](C)[C@@H]1NC(=O)[C@H](Cc2c[nH]cn2)NC(=O)[C@H](Cc2ccc(O)cc2)NC(=O)[C@@H]2CCCN2C(=O)[C@H]2CCCN2C(=O)[C@H](CCCCN)NC(=O)[C@H](CCC(N)=O)NC(=O)[C@H](Cc2ccc(O)cc2)NC(=O)[C@@H]2CSSC[C@H](NC1=O)C(=O)N[C@@H](Cc1c[nH]cn1)C(=O)NCC(=O)N1CCC[C@@H]1C(=O)N[C@@H](Cc1c[nH]c3ccccc13)C(=O)N[C@@H]([C@@H](C)O)C(=O)N[C@@H]([C@@H](C)CC)C(=O)N2
Turning to B4, the “β-Arrestin IC50” value came out at 35 nM.

B5: cyclo(-Tyr-His-Ala-Cys-Trp-Gly-^DPro-Trp-Thr-Ile-Cys-Tyr-Gln-Ala-^DPro-Pro-) (peptide)
peptide: cyclo(YHACWG[dP]WTICYQA[dP]P)
modifications: disulfide 4-11
SMILES: CC[C@H](C)[C@@H]1NC(=O)[C@H]([C@@H](C)O)NC(=O)[C@H](Cc2c[nH]c3ccccc23)NC(=O)[C@H]2CCCN2C(=O)CNC(=O)[C@H](Cc2c[nH]c3ccccc23)NC(=O)[C@@H]2CSSC[C@H](NC1=O)C(=O)N[C@@H](Cc1ccc(O)cc1)C(=O)N[C@@H](CCC(N)=O)C(=O)N[C@@H](C)C(=O)N1CCC[C@@H]1C(=O)N1CCC[C@H]1C(=O)N[C@@H](Cc1ccc(O)cc1)C(=O)N[C@@H](Cc1c[nH]cn1)C(=O)N[C@@H](C)C(=O)N2
With B5, the “β-Arrestin IC50” value was found to be 76 nM.

B6: cyclo(-Tyr-His-Ala-Cys-His-Gly-^DPro-Trp-Thr-Ile-Cys-Tyr-Trp-Lys-^DPro-Pro-) (peptide)
peptide: cyclo(YHACHG[dP]WTICYWK[dP]P)
modifications: disulfide 4-11
SMILES: CC[C@H](C)[C@@H]1NC(=O)[C@H]([C@@H](C)O)NC(=O)[C@H](Cc2c[nH]c3ccccc23)NC(=O)[C@H]2CCCN2C(=O)CNC(=O)[C@H](Cc2c[nH]cn2)NC(=O)[C@@H]2CSSC[C@H](NC1=O)C(=O)N[C@@H](Cc1ccc(O)cc1)C(=O)N[C@@H](Cc1c[nH]c3ccccc13)C(=O)N[C@@H](CCCCN)C(=O)N1CCC[C@@H]1C(=O)N1CCC[C@H]1C(=O)N[C@@H](Cc1ccc(O)cc1)C(=O)N[C@@H](Cc1c[nH]cn1)C(=O)N[C@@H](C)C(=O)N2
In the case of B6, the “β-Arrestin IC50” value was 36 nM.

B7: cyclo(-Tyr-His-Thr-Cys-His-Gly-^DPro-Trp-Thr-Ile-Cys-Tyr-Gln-Lys-^DPro-Pro-) (peptide)
peptide: cyclo(YHTCHG[dP]WTICYQK[dP]P)
modifications: disulfide 4-11
SMILES: CC[C@H](C)[C@@H]1NC(=O)[C@H]([C@@H](C)O)NC(=O)[C@H](Cc2c[nH]c3ccccc23)NC(=O)[C@H]2CCCN2C(=O)CNC(=O)[C@H](Cc2c[nH]cn2)NC(=O)[C@@H]2CSSC[C@H](NC1=O)C(=O)N[C@@H](Cc1ccc(O)cc1)C(=O)N[C@@H](CCC(N)=O)C(=O)N[C@@H](CCCCN)C(=O)N1CCC[C@@H]1C(=O)N1CCC[C@H]1C(=O)N[C@@H](Cc1ccc(O)cc1)C(=O)N[C@@H](Cc1c[nH]cn1)C(=O)N[C@@H]([C@@H](C)O)C(=O)N2
Regarding B7, the “β-Arrestin IC50” value turned out to be 178 nM.

B8: cyclo(-Tyr-His-Ala-Cys-Trp-Gly-^DPro-Trp-Thr-Ile-Cys-Tyr-Glu-Lys-^DPro-Pro-) (peptide)
peptide: cyclo(YHACWG[dP]WTICYEK[dP]P)
modifications: disulfide 4-11
SMILES: CC[C@H](C)[C@@H]1NC(=O)[C@H]([C@@H](C)O)NC(=O)[C@H](Cc2c[nH]c3ccccc23)NC(=O)[C@H]2CCCN2C(=O)CNC(=O)[C@H](Cc2c[nH]c3ccccc23)NC(=O)[C@@H]2CSSC[C@H](NC1=O)C(=O)N[C@@H](Cc1ccc(O)cc1)C(=O)N[C@@H](CCC(=O)O)C(=O)N[C@@H](CCCCN)C(=O)N1CCC[C@@H]1C(=O)N1CCC[C@H]1C(=O)N[C@@H](Cc1ccc(O)cc1)C(=O)N[C@@H](Cc1c[nH]cn1)C(=O)N[C@@H](C)C(=O)N2
Turning to B8, the “β-Arrestin IC50” value amounted to 68 nM.

B9: cyclo(-Tyr-His-Ala-Cys-Trp-Gly-^DPro-Trp-Thr-Ile-Cys-Tyr-Gln-Glu-^DPro-Pro-) (peptide)
peptide: cyclo(YHACWG[dP]WTICYQE[dP]P)
modifications: disulfide 4-11
SMILES: CC[C@H](C)[C@@H]1NC(=O)[C@H]([C@@H](C)O)NC(=O)[C@H](Cc2c[nH]c3ccccc23)NC(=O)[C@H]2CCCN2C(=O)CNC(=O)[C@H](Cc2c[nH]c3ccccc23)NC(=O)[C@@H]2CSSC[C@H](NC1=O)C(=O)N[C@@H](Cc1ccc(O)cc1)C(=O)N[C@@H](CCC(N)=O)C(=O)N[C@@H](CCC(=O)O)C(=O)N1CCC[C@@H]1C(=O)N1CCC[C@H]1C(=O)N[C@@H](Cc1ccc(O)cc1)C(=O)N[C@@H](Cc1c[nH]cn1)C(=O)N[C@@H](C)C(=O)N2
Take B9: the “β-Arrestin IC50” value amounted to 63 nM.

B10: cyclo(-Tyr-His-Lys-Cys-Trp-Gly-^DPro-Trp-Thr-Ile-Cys-Tyr-Gln-Lys-^DPro-Pro-) (peptide)
peptide: cyclo(YHKCWG[dP]WTICYQK[dP]P)
modifications: disulfide 4-11
SMILES: CC[C@H](C)[C@@H]1NC(=O)[C@H]([C@@H](C)O)NC(=O)[C@H](Cc2c[nH]c3ccccc23)NC(=O)[C@H]2CCCN2C(=O)CNC(=O)[C@H](Cc2c[nH]c3ccccc23)NC(=O)[C@@H]2CSSC[C@H](NC1=O)C(=O)N[C@@H](Cc1ccc(O)cc1)C(=O)N[C@@H](CCC(N)=O)C(=O)N[C@@H](CCCCN)C(=O)N1CCC[C@@H]1C(=O)N1CCC[C@H]1C(=O)N[C@@H](Cc1ccc(O)cc1)C(=O)N[C@@H](Cc1c[nH]cn1)C(=O)N[C@@H](CCCCN)C(=O)N2
Take B10: the “β-Arrestin IC50” value was found to be 71 nM.

B11: cyclo(-Tyr-His-Trp-Cys-Trp-Gly-^DPro-Trp-Thr-Ile-Cys-Tyr-Gln-Lys-^DPro-Pro-) (peptide)
peptide: cyclo(YHWCWG[dP]WTICYQK[dP]P)
modifications: disulfide 4-11
SMILES: CC[C@H](C)[C@@H]1NC(=O)[C@H]([C@@H](C)O)NC(=O)[C@H](Cc2c[nH]c3ccccc23)NC(=O)[C@H]2CCCN2C(=O)CNC(=O)[C@H](Cc2c[nH]c3ccccc23)NC(=O)[C@@H]2CSSC[C@H](NC1=O)C(=O)N[C@@H](Cc1ccc(O)cc1)C(=O)N[C@@H](CCC(N)=O)C(=O)N[C@@H](CCCCN)C(=O)N1CCC[C@@H]1C(=O)N1CCC[C@H]1C(=O)N[C@@H](Cc1ccc(O)cc1)C(=O)N[C@@H](Cc1c[nH]cn1)C(=O)N[C@@H](Cc1c[nH]c3ccccc13)C(=O)N2
Consider B11, for which the “β-Arrestin IC50” value is 89 nM.

B12: cyclo(-Dab-His-Lys-Cys-His-Gly-^DPro-Trp-Thr-Ile-Cys-Tyr-Glu-Lys-^DPro-Glu-) (peptide)
peptide: cyclo([Dab]HKCHG[dP]WTICYEK[dP]E)
modifications: disulfide 4-11
SMILES: CC[C@H](C)[C@@H]1NC(=O)[C@H]([C@@H](C)O)NC(=O)[C@H](Cc2c[nH]c3ccccc23)NC(=O)[C@H]2CCCN2C(=O)CNC(=O)[C@H](Cc2c[nH]cn2)NC(=O)[C@@H]2CSSC[C@H](NC1=O)C(=O)N[C@@H](Cc1ccc(O)cc1)C(=O)N[C@@H](CCC(=O)O)C(=O)N[C@@H](CCCCN)C(=O)N1CCC[C@@H]1C(=O)N[C@@H](CCC(=O)O)C(=O)N[C@@H](CCN)C(=O)N[C@@H](Cc1c[nH]cn1)C(=O)N[C@@H](CCCCN)C(=O)N2
In the case of B12, the “β-Arrestin IC50” value is 144 nM.

B13: cyclo(-Tyr-His-Trp-Cys-His-Gly-^DPro-Trp-Thr-Ile-Cys-Tyr-Gln-Lys-^DPro-Pro-) (peptide)
peptide: cyclo(YHWCHG[dP]WTICYQK[dP]P)
modifications: disulfide 4-11
SMILES: CC[C@H](C)[C@@H]1NC(=O)[C@H]([C@@H](C)O)NC(=O)[C@H](Cc2c[nH]c3ccccc23)NC(=O)[C@H]2CCCN2C(=O)CNC(=O)[C@H](Cc2c[nH]cn2)NC(=O)[C@@H]2CSSC[C@H](NC1=O)C(=O)N[C@@H](Cc1ccc(O)cc1)C(=O)N[C@@H](CCC(N)=O)C(=O)N[C@@H](CCCCN)C(=O)N1CCC[C@@H]1C(=O)N1CCC[C@H]1C(=O)N[C@@H](Cc1ccc(O)cc1)C(=O)N[C@@H](Cc1c[nH]cn1)C(=O)N[C@@H](Cc1c[nH]c3ccccc13)C(=O)N2
As for B13, the “β-Arrestin IC50” value is 177 nM.
